Values of other authors in publication PMC3781210.
Where two headings read alike, the source gives them in different places. Values belong to the substance of their own block, whether it stands above or below them.

How the values were obtained:
Beclin 1 (Homo sapiens) [1] = target: Beclin 1 (Homo sapiens) (UniProt Q14457)
Beclin 1 (Homo sapiens) [2] = target: Beclin 1 (Homo sapiens) (UniProt Q14457); remark: listed apart in the source
Beclin 1 (Homo sapiens) [3] = target: Beclin 1 (Homo sapiens) (UniProt Q14457); remark: listed apart in the source

Sequence of UniProt Q14457 (Q14457 150-450): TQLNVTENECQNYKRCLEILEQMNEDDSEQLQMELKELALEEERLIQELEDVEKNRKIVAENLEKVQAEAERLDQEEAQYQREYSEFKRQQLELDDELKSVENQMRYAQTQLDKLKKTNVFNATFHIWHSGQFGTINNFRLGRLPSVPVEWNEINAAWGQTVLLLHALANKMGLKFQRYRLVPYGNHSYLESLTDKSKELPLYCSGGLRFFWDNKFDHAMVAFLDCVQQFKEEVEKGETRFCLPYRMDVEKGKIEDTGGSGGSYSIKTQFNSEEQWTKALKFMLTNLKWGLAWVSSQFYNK

Kd (Beclin 1 (Homo sapiens) [1]): 1700 nM
Substance: Bcl-2 (from UniProt P10415)

Substance: vBcl-2 (from UniProt P89884)
Kd (Beclin 1 (Homo sapiens) [2]): 40 nM

Kd (Beclin 1 (Homo sapiens) [3]): 1700 nM
Substance: Bcl-XL (from UniProt Q07817)
